Bridges are numbered along the chain shown (N, C = ends). Where no end group is shown, it is not given here. [ ]: non-standard residue; d: D form. glucose = glucose (covalently linked to the residue side chain); Dap = NC[C@H](N)C(=O)O; Aib = CC(C)(N)C(=O)O
Target: T1, human Mu Opioid Receptor (MOR) (human, UniProt P35372 1-400)
T1 construct: whole, on cells; also called MOR-CHO(PE)
Assay: competition binding against [3H]diprenorphine on MOR-CHO(PE) membranes
Description: Competition Binding at MOR-CHO(PE) Presence of [3H]Diprenorphine: The compounds were also tested for off-target binding to the human Mu Opioid Receptor (MOR), also expressed in CHO cells. Briefly, the experiment involved: Protein: MOR-CHO(PE) Passage: 16; previously frozen cell pellets used and prepared. Protein 15 ug/well used. Serial dilution of compounds and Naloxone(control) used. Total binding absence of compound used, 10uM Naloxone used for nonspecific binding. Each well contained membrane 15 ug/well protein and 2.48 nM Radioligand final conc. Incubated 1 hour in R/T; harvested on GF/B filter, dried O/N. Data are normalized to % Specific binding. MOR-CHO(PE) cell Kd:5.27±2.39 nM. Data are expressed as mean of a single experiment, performed in triplicate. Vehicle contained 0.1% DMSO and 0.1% BSA. (Radioligand:#23067 Lot:2548344 NET: 1121250UC). Table 1 below also summarizes overall MOR binding profile of cyclic oligopeptides of the invention compared to naloxone.

T1 sequence (P35372 whole entry): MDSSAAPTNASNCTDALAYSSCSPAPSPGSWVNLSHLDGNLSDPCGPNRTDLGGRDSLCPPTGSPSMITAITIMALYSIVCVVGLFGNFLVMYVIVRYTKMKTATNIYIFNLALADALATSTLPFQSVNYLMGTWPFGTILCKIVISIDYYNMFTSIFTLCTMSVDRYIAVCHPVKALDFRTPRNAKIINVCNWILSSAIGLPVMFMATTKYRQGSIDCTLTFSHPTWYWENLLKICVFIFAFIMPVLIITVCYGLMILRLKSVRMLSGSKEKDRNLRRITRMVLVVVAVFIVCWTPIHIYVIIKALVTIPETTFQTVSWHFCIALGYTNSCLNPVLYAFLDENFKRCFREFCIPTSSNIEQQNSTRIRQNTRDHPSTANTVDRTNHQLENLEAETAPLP

B1: 2LS118-5 (peptide)
peptide: DYIQN[Dap]PLGS(glucose)-NH2
modifications: lactam 1-6
notes: Synthetic cyclic glycopeptide: Asp-Tyr-Ile-Gln-Asn-Dap-Pro-Leu-Gly-SerGlc-CONH2, cyclized AA1-AA6
IC50: > 2500 nM | Ki: > 2500 nM

B2: SSoxy6 (peptide)
peptide: EYIQN[Dap]P[Aib]GS(glucose)-NH2
modifications: lactam 1-6
notes: Synthetic cyclic glycopeptide: Glu-Tyr-Ile-Gln-Asn-Dap-Pro-Aib-Gly-SerGlc-CONH2, cyclized AA1-AA6
IC50: > 2500 nM | Ki: > 2500 nM

B3: 2LS118-4 (peptide)
peptide: DYIQN[Dap]PLS(glucose)-NH2
modifications: lactam 1-6
notes: Synthetic cyclic glycopeptide: Asp-Tyr-Ile-Gln-Asn-Dap-Pro-Leu-SerGlc-CONH2, cyclized AA1-AA6; also called compound 2LS118-4
IC50: > 2500 nM | Ki: > 2500 nM

B4: 2LS118-2 (peptide)
peptide: EYIQN[Dap]PLG-NH2
modifications: lactam 1-6; N-terminus assumed
SMILES: CC[C@H](C)[C@@H]1NC(=O)[C@H](Cc2ccc(O)cc2)NC(=O)[C@@H](N)CCC(=O)NC[C@@H](C(=O)N2CCC[C@H]2C(=O)N[C@@H](CC(C)C)C(=O)NCC(N)=O)NC(=O)[C@H](CC(N)=O)NC(=O)[C@H](CCC(N)=O)NC1=O
notes: Synthetic cyclic oxytocin analogue: Glu-Tyr-Ile-Gln-Asn-Dap-Pro-Leu-Gly-CONH2, cyclized AA1-AA6
IC50: > 2500 nM | Ki: > 2500 nM

B5: SSoxy4 (peptide)
peptide: EYIQN[Dap]PLS(glucose)-NH2
modifications: lactam 1-6
notes: Synthetic cyclic glycopeptide: Glu-Tyr-Ile-Gln-Asn-Dap-Pro-Leu-SerGlc-CONH2, cyclized AA1-AA6
IC50: > 2500 nM | Ki: > 2500 nM

B6: 2LS118-1 (peptide)
peptide: DYIQN[Dap]PLG-NH2
modifications: lactam 1-6; N-terminus assumed
SMILES: CC[C@H](C)[C@@H]1NC(=O)[C@H](Cc2ccc(O)cc2)NC(=O)[C@@H](N)CC(=O)NC[C@@H](C(=O)N2CCC[C@H]2C(=O)N[C@@H](CC(C)C)C(=O)NCC(N)=O)NC(=O)[C@H](CC(N)=O)NC(=O)[C@H](CCC(N)=O)NC1=O
notes: Synthetic cyclic oxytocin analogue: Asp-Tyr-Ile-Gln-Asn-Dap-Pro-Leu-Gly-CONH2, cyclized AA1-AA6; also called compound 2LS118-1
IC50: > 2500 nM | Ki: > 2500 nM

B7: 2LS118-6 (peptide)
peptide: DYIQN[Dap]PLGS(glucose)S(glucose)-NH2
modifications: lactam 1-6
notes: Synthetic cyclic glycopeptide: Asp-Tyr-Ile-Gln-Asn-Dap-Pro-Leu-Gly-(SerGlc)2-CONH2, cyclized AA1-AA6
IC50: > 2500 nM | Ki: > 2500 nM

B8: SSoxy3 (peptide)
peptide: DYIQN[Dap]P[Aib]S(glucose)-NH2
modifications: lactam 1-6
notes: Synthetic cyclic glycopeptide: Asp-Tyr-Ile-Gln-Asn-Dap-Pro-Aib-SerGlc-CONH2, cyclized AA1-AA6
IC50: > 2500 nM | Ki: > 2500 nM

B9: SSoxy5 (peptide)
peptide: EYIQN[Dap]P[Aib]S(glucose)-NH2
modifications: lactam 1-6
notes: Synthetic cyclic glycopeptide: Glu-Tyr-Ile-Gln-Asn-Dap-Pro-Aib-SerGlc-CONH2, cyclized AA1-AA6
IC50: > 2500 nM | Ki: > 2500 nM

B10: SSoxy1 (peptide)
peptide: DYIQN[Dap]PLS(lactose)-NH2
modifications: lactam 1-6
notes: Synthetic cyclic glycopeptide: Asp-Tyr-Ile-Gln-Asn-Dap-Pro-Leu-SerLact-CONH2, cyclized AA1-AA6
IC50: > 2500 nM | Ki: > 2500 nM

B11: SSoxy2 (peptide)
peptide: DYIQN[Dap]PLGS(lactose)-NH2
modifications: lactam 1-6
notes: Synthetic cyclic glycopeptide: Asp-Tyr-Ile-Gln-Asn-Dap-Pro-Leu-Gly-SerLact-CONH2, cyclized AA1-AA6
IC50: > 2500 nM | Ki: > 2500 nM

B12: 2LS118-3 (peptide)
peptide: [Dap]YIQNDPLG-NH2
modifications: lactam 1-6; N-terminus assumed
SMILES: CC[C@H](C)[C@@H]1NC(=O)[C@H](Cc2ccc(O)cc2)NC(=O)[C@@H](N)CNC(=O)C[C@@H](C(=O)N2CCC[C@H]2C(=O)N[C@@H](CC(C)C)C(=O)NCC(N)=O)NC(=O)[C@H](CC(N)=O)NC(=O)[C@H](CCC(N)=O)NC1=O
IC50: > 2500 nM | Ki: > 2500 nM
